In publication PMC9949482 (2021):

Tests used:
[1] = target: T1, GRIP-1 (Homo sapiens, UniProt Q15596); test: thermal shift, van't Hoff to 25 °C
[2] = target: T1, GRIP-1; test: thermal shift

T1 sequence (Q15596 2-1464): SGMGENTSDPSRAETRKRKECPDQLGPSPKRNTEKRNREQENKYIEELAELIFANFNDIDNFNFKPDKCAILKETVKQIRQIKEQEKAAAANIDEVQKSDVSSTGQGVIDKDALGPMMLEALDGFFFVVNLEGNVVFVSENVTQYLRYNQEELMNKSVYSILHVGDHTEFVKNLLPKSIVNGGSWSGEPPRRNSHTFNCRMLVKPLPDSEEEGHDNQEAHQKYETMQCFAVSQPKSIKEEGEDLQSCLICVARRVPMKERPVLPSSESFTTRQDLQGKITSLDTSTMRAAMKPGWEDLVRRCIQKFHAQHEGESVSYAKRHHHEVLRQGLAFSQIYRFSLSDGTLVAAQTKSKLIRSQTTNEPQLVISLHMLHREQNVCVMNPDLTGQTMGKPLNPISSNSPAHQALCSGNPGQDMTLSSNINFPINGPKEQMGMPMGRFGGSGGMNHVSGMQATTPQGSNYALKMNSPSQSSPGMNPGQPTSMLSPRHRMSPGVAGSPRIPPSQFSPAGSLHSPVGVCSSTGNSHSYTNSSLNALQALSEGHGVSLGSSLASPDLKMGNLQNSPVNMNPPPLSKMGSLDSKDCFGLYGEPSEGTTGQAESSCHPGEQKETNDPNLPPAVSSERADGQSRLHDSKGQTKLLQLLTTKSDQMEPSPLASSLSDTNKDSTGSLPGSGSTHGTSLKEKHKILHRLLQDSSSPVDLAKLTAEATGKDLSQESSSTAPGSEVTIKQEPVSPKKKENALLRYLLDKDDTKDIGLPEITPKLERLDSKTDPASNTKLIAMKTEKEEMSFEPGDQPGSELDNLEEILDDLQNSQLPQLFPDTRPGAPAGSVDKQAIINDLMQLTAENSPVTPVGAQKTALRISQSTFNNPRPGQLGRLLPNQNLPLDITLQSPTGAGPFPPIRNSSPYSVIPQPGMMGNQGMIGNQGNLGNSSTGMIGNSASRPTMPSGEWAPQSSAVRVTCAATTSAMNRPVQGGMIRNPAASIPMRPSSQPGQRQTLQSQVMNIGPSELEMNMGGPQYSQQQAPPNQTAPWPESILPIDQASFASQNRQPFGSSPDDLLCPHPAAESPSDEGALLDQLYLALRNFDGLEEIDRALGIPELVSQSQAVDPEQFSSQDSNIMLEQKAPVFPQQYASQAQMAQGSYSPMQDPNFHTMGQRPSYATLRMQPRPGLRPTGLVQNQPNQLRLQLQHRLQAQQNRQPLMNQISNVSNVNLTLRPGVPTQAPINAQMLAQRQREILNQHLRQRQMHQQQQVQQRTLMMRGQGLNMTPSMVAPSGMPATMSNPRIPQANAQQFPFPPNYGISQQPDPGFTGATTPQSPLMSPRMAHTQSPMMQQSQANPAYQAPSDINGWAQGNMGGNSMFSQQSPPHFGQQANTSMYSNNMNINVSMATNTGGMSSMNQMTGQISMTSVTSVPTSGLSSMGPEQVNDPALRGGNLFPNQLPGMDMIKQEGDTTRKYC

Row | Kd [1] [µM] | Kd [2] [µM] | Binder
1 | 1.8 | 24 | RXRα LBD (protein, UAB111) NEDMPVERILEAELAVEPKTETYVEANMGLNPSSPNDPVTNICQAADKQLFTLVEWAKRIPHFSELPLDDQVILLRAGWNELLIASFSHRSIAVKDGILLATGLHVHRNSAHSAGVGAIFDRVLTELVSKMRDMQMDKTELGCLRAIVLFNPDSKGLSNPAEVEALREKVYASLEAYCKHKYPEQPGRFAKLLLRLPALRSIGLKCLEHLFFFKLIGDTPIDTFLMEMLEAP
2 | 0.74 | 22 | RXRα LBD (protein, UAB30) NEDMPVERILEAELAVEPKTETYVEANMGLNPSSPNDPVTNICQAADKQLFTLVEWAKRIPHFSELPLDDQVILLRAGWNELLIASFSHRSIAVKDGILLATGLHVHRNSAHSAGVGAIFDRVLTELVSKMRDMQMDKTELGCLRAIVLFNPDSKGLSNPAEVEALREKVYASLEAYCKHKYPEQPGRFAKLLLRLPALRSIGLKCLEHLFFFKLIGDTPIDTFLMEMLEAP
3 | 1.5 | 26 | RXRα LBD (protein, UAB110) NEDMPVERILEAELAVEPKTETYVEANMGLNPSSPNDPVTNICQAADKQLFTLVEWAKRIPHFSELPLDDQVILLRAGWNELLIASFSHRSIAVKDGILLATGLHVHRNSAHSAGVGAIFDRVLTELVSKMRDMQMDKTELGCLRAIVLFNPDSKGLSNPAEVEALREKVYASLEAYCKHKYPEQPGRFAKLLLRLPALRSIGLKCLEHLFFFKLIGDTPIDTFLMEMLEAP
